Measurements: patent publication EP1088233B9, “A BIOLUMINESCENCE RESONANCE ENERGY TRANSFER (BRET) SYSTEM AND ITS USE” (PerkinElmer BioSignal Inc., priority 1998, dated 1999)
Like-named read-outs stand apart in the source and are kept apart here.

How the values were obtained:
[1] = molecular target: EYFP•KaiB fusion protein (Aequorea victoria; Synechococcus (cyanobacterium)) (UniProt Q79PF5); assay: BRET luminescence spectra, co-expression in E. coli
[2] = molecular target: EYFP•KaiB fusion protein (Aequorea victoria; Synechococcus (cyanobacterium)) (UniProt Q79PF5); assay: BRET imaging of E. coli cultures through 480 and 530 nm filters, cooled-CCD camera
[3] = molecular target: EYFP•KaiA fusion protein (Aequorea victoria; Synechococcus (cyanobacterium)) (UniProt Q79PF6); assay: as above
EYFP•KaiA fusion protein (Aequorea victoria; Synechococcus (cyanobacterium)), sequence (Q79PF6 whole entry, the tested form may be a part): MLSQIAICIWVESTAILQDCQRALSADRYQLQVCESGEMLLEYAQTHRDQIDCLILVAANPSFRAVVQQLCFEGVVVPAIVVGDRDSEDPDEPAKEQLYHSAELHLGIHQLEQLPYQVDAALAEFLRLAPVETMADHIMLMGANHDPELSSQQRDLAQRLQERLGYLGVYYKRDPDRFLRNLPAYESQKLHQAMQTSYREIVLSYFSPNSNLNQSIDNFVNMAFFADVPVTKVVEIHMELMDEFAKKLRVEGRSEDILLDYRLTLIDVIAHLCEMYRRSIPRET

[4] = molecular target: T1, calcitonin receptor (Cricetulus griseus, UniProt G3GXI2); settings: literature values; read-out: EC50 found in literature for a functional assay; cited from earlier work
T1 sequence (G3GXI2 40-539): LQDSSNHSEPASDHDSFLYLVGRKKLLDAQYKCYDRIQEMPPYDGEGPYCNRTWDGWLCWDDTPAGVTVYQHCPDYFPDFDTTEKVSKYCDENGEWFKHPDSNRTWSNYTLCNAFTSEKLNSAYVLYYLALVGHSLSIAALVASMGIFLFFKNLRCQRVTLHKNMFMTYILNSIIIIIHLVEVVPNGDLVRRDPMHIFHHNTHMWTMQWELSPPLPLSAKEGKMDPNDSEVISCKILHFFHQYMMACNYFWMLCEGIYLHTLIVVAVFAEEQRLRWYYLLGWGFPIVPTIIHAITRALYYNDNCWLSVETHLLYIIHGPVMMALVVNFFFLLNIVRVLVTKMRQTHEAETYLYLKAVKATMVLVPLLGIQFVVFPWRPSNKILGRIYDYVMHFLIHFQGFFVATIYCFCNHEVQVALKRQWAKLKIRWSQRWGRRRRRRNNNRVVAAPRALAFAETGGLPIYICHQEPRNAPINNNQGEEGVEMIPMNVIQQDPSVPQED

[5] = molecular target: T1, calcitonin receptor; assay: cAMP sensor (CBP:CREB) BRET assay in CHO-K1 cells, endogenous calcitonin receptor; assay type: cell-based
Protocol: The pCDNA3./Rluc-CBP-NLS and pCDNA3.1 /EYFP-CREB-NLS DNA constructs were transiently transfected into CHO-K1, CHO-CCRS or CHW-β2 cell lines using LipofectAMINE™ (BRL/Gibco-Life technology, Gaethersburg, MD) using equal amount (4 µg) of DNA for each construct in 100mm dishes.
BRET assay using the transfected cells in suspension. At 48 hours post-transfection, the transfected cells were starved for 2 hours in a mixture of PBS + Ca2 + 1 mM/Mg2 + 0.5mM + glucose 1 g/l +aprotinin 2 µg/ml at 37°C before being harvested, washed with a mixture of PBS Ca2+/Mg2+ + glucose + aprotinin 2 µg/ml and counted. […]
BRET assay using transfected cells attached onto the bottom of the microplate. […] At 48 hours post-transfection, the transfected cells were starved as previously mentioned, washed and then analyzed without being harvested.
The assay conditions for both methods (cell in suspension or attached), cells were in PBS Ca2+ Mg2+ + glucose + aprotinin 2 µg/ml in volume of […]. […] Each well was read using both filters for 1 second each.
The CHO-K1 cells were transfected with both constructs. At 48 hours post-transfection, the cells were starved for 2 hours, washed, harvested and counted. […] The microplate was loaded into the BRETCount and light outputs at 470nm and 550nm were determined at several points to determine a timecourse (fig. 10). […]

[6] = molecular target: calcitonin receptor expressed endogenously by CHO-K1 cells; assay: cell-based or functional assay
[7] = molecular target: T2, Rluc (Renilla reniformis, UniProt P27652); assay: Rluc luminescence with coelenterazine derivatives in cells transfected with pRluc-CMV (LumiCount); parameters: Normalized RLU: dose or concentration left out as unconfirmed; settings: for Normalized RLU: derivatives, 4 minutes after addition; for half-life of the reaction (Rluc luminescence): coelenterazine f 1 mM
T2 sequence (P27652 1-311): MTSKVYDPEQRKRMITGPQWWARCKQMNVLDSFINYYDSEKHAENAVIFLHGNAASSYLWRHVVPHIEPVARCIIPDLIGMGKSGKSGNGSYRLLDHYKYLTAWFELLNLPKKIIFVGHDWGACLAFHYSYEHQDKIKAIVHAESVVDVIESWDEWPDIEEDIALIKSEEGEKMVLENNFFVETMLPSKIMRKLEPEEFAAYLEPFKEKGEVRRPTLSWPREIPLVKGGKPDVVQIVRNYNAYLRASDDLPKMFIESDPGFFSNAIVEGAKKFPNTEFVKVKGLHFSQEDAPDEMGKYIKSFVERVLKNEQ
Protocol: i) Coelenterazine derivatives. […] Cells (HeLa) were transiently transfected inT-75 flask with pRluc-CMV orcontrol vector using LipofectAMINE. At 48 hours post-transfection, cells were harvested and seeded in 96-well white ViewPlate (in duplicate). Coelenterazine derivatives (1 mM) were then added in each well. Luminescence from transfected cells was measured using the LumiCount 4 minutes after addition of coelenterazine derivatives. LumiCount was set at 1100V PMT and 1 sec read length.
Cells (HeLa and CHO) were transiently transfected inT-75 flasks with pRluc-CMV using LipofectAMINE. At 48 hours post-transfection, cells were harvested and seeded in 96-well white ViewPlate at a density of 50 000 cells per wells (in quadruplicate). Coelenterazine f (1 mM) was then added in each well. Luminescence from transfected cells was measured using the LumiCount at different times after addition of coelenterazine. LumiCount was set at 1100V PMT and 0.1 sec read length.

[8] = molecular target: enhanced yellow fluorescent protein (EYFP) (Aequorea victoria); assay: BRET in co-transfected cells, LumiCount, black microplate, 200 ul, 5 uM coelenterazine, 50,000 cells per well
[9] = molecular target: enhanced yellow fluorescent protein (EYFP) (Aequorea victoria); assay: BRET in co-transfected cells, LumiCount, white microplate, 100 ul, 5 uM coelenterazine, 50,000 cells per well
[10] = molecular target: enhanced yellow fluorescent protein (EYFP) (Aequorea victoria); assay: BRET in co-transfected cells, LumiCount, white microplate, 200 ul, 5 uM coelenterazine, 50,000 cells per well
[11] = tested on: HeLa cells transfected with the apoptosis sensor; assay: Apoptosis sensor (Rluc-caspase-EYFP) BRET assay; assay type: cell-based; settings: staurosporine 1mM, 5 hours of apoptosis induction, 10 minutes after coelenterazine h
Excerpt: A BRET apoptosis sensor was engineered by introducing a caspase-3 recognition site in the linker regionof the Rluc-EYFP fusionconstruct. Upon inductionof apoptosis, caspase-3 should recognize and cleave the linker region which should separate Rluc of EYFP and thereby decrease the BRET ratio over time.
pCEP4/Rluc-EYFP and pCEP4/Rluc-caspase-EYFP DNAs were transfected into HeLa cell using LipofectAMINE (BRL/Gibco-Life technologies) in 100mm dishes as described in the manufacturer's protocol. 24 hours post-transfection, transfected cells were harvested and distributed into 96-well microplates (white Optiplate from Packard) at a density of 30,000 cells per well. The following day, cells are induced to undergo apoptosis using staurosporine 1mM dissolved in ISCOVE media (BRL/Gibco-Life technologies) without serum and phenol red at 37°C (total volume here is […]) for 5 hours. […] of BRET buffer (PBS Ca^2+/Mg^2+ + glucose without aprotinin) and […] of coelenterazine h […] is added to start the bioluminescent reaction. Light emissions are detected using the BRETCount (read length sec for each filter, temperature 25°C). Data was collected 10 minutes after addition of coelenterazine h. The assay was done in quadruplicate.
Figure 31 gives representative BRET ratio changes in HeLa cells after 5 hours of apoptosis induction by staurosporine. […]

[12] = molecular target: Rluc-caspase-EYFP (apoptosis sensor) (Renilla reniformis; Aequorea victoria) (UniProt P27652); assay: cell-based or functional assay
[13] = Effect of DTT on BRET ratio in stable cell lines expressing Rluc or Rluc::EYFP (BRETCount); assay type: cell-based; settings: DTT 10mM in PBS+Ca2+/Mg2++glucose
Protocol: PBS=PBS+Ca^2+/Mg^2++glucose. DTT 10mM. […] PBS=PBS+Ca^2+/Mg^2++glucose DTT 10mM.
In PBS (Ca ^2+/Mg^2++glucose) alone, BRET ratios are lower than in presence of DTT. When DTT is added, ratios increase by almost 0.1 BRET unit.

[14] = Cell viability by trypan blue dye in BRET assay media; assay type: cell-based; settings: hamster, cho cells
Protocol: The effect of the type of media on the luminescence of the Rluc was assayed in absence or in the presence of various amount of DTT. Transfected CHO cells were collected and redistributed in 96 well plate using different media conditions (Figures 24-26). Luminescence timecourses at 470nm (TopCount) were performed at 25°C upon coelenterazine addition. The effects of three different media were assayed: PBS Ca^2+/Mg^2+ (Figure 24), PBS Ca^2+/Mg^2+ + glucose (Figure 25) and DMEM without phenol red (Figure 26).
Similar results were found in presence of 100mM DTT: PBS alone gave higher long term counts. As expected, increasing the concentration of DTT improved Rluc stability in all three media. Unfortunately, high amounts of DTT (50 and 100mM) which gave the best stability, damaged the cells: viability was assayed using trypan blue dye and decreased more than 20% over a period of 2 hours. […] This concentration was chosen for the BRET assays. […] However, DTT is not necessary for the BRET reaction to occur efficiently: as it acts as a boost for the Rluc long term emission.
In order to avoid cell damage during the assay procedure and timecourse experiments, an analysis was conducted to determine whether the use of aprotinin perturbs ratiometric measurements. Aprotinin is a protease inhibitor which is often used during cell culture to maintain cell integrity. […]

[15] = molecular target: EGF receptors expressed endogenously by GH4-C1 cells; assay: cell-based or functional assay

EYFP•KaiB fusion protein (Aequorea victoria; Synechococcus (cyanobacterium)), sequence (Q79PF5 whole entry, the tested form may be a part): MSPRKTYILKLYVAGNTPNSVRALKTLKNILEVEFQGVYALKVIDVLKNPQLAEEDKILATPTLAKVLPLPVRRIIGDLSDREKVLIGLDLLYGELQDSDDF

Compound: RLUC•KaiB fusion protein (from UniProt Q79PF5 1-102)
- share of the RLUC luminescence for which energy transfer occurs [1]: 50%
- 530/480nm ratio of luminescence [2]: 0.9
- 530/480nm ratio of luminescence [3]: 0.4

Compound: calcitonin
- EC50 [4]: 0.03 to 0.06 nM
- EC50 ([5]; CHO-K1 transfected with cAMP sensor, attached cells, data point at 45 minutes after addition of coelenterazine): 0.027 nM
- BRET ratio over time ([5]; calcitonin 2 nM and 10nM, CHO-K1 cells in suspension, compared to buffer alone): Ratios increased over time

Compound: calcitonin (peptide)
- EC50 of the calcitonin dose response, BRET ratio of the cAMP sensor in attached CHO-K1 cells at 45 minutes [6]: 0.027 nM

Compound: Oc1ccc(-c2cn3c(O)c(Cc4ccccc4)nc3c(CC3CCCC3)n2)cc1 [hcp]
- Normalized RLU ([7]; HeLa cells): 48144 RLU

Compound: Renilla luciferase (RLUC) (from UniProt P27652 1-311) (enzyme)
- Ratio 530/480 [8]: 0.76
- Ratio 530/480 [9]: 0.9
- Ratio 530/480 [10]: 0.87

Compound: CN[C@@H]1C[C@H]2O[C@@](C)([C@@H]1OC)n1c3ccccc3c3c4c(c5c6ccccc6n2c5c31)C(=O)NC4 [staurosporine]
- BRET ratio change (decrease) [11]: 0.1 unit

Compound: Oc1ccc(Cc2nc3c(Cc4ccccc4)nc(-c4ccc(O)cc4)cn3c2O)cc1 [native, coelenterazine]
- Normalized RLU ([7]; HeLa cells): 2030 RLU

Compound: Oc1ccc(-c2cn3c(O)c(Cc4ccc(F)cc4)nc3c(Cc3ccccc3)n2)cc1 [f, coelenterazine f]
- half-life of the reaction (Rluc luminescence) ([7]; CHO cells): 11 min
- half-life of the reaction (Rluc luminescence) ([7]; HeLa cells): 13 min
- Normalized RLU ([7]; HeLa cells): 180126 RLU

Compound: caspase-3 (endogenous in HeLa cells) (from UniProt P42574 29-277) (enzyme)
- BRET ratio change in HeLa cells after 5 hours of apoptosis induction by staurosporine [12]: 0.1 unit

Compound: OC(CS)C(O)CS (stereo not shown) [DTT]
- increase of BRET ratio [13]: ~0.1 BRET unit
- cytotoxicity at 2 h, 10000 µM ([14]; DTT 10mM, over 2 hours, read-out: viability loss): < 15%
- cytotoxicity at 2 h ([14]; DTT 50 and 100mM, over a period of 2 hours, read-out: viability decrease): > 20%

Compound: Oc1ccc(-c2cn3c(O)c(Cc4ccccc4)nc3c(Cc3ccccc3)n2)cc1 [h, coelenterazine h]
- Normalized RLU ([7]; HeLa cells): 173547 RLU

Compound: EGF (ligand)
- EC50 of the EGF dose response, BRET ratio of the TKR sensor (Rluc-PTB + EYFP-SH2) in GH4-C1 cells at 45 minutes post induction [15]: 0.92 nM
